Three molecules from article PMC3701909, “Direct single molecule measurement of TCR triggering by agonist pMHC in living primary T cells” (eLife, 2013) can be followed below.

In one assay the test system is 5c.c7 TCR. The assay is described as follows: single molecule tracking of agonist pMHC:TCR dwell times in hybrid live T cell-supported membrane junctions. The class given is binding, mouse. The note with it: 5c.c7 T cells, 37 °C, compared with same-day control. From the text: (§1) We probe agonist pMHC:TCR complex dynamics in hybrid live cell—supported membrane junctions([Grakoui et al., 1999]) (Figure 1A). The supported membrane is functionalized with MHC (IE^k) and intercellular adhesion molecule-1 fusion with a blue fluorescent protein (ICAM1-TagBFP), both linked to the membrane via C-terminal poly-His tag binding to Ni-chelating lipids ([Nye and Groves, 2008]). The MHC is loaded with peptide (moth cytochrome c [MCC] agonist or null), which is covalently coupled in a 1:1 stoichiometry (verified by HPLC) to the photostable fluorophores Atto647N or Atto488 using maleimide-thiol chemistry. […]
(§2) Since the slow-moving pMHC can be clearly resolved from the fast moving component, the lifetime of molecules in this bound state is directly observable. […] Unbinding and photobleaching are indistinguishable in fluorescence methods such as this. […]
(§3) TIRF experiments were performed on an inverted microscope (Nikon Eclipse Ti; Technical Instruments, Burlingame, CA) using a custom-built laser launch with 488 nm (Sapphire HP; Coherent Inc., Santa Clara, CA) and 640 nm (Cube; Coherent Inc.) diode lasers, as described previously ([Smith et al., 2011]). Laser powers measured at the sample were 0.8 mW (640 nm) and 0.5 mW (488 nm) for 500 ms exposures and 4.4 mW (640 nm) for 17.5 ms exposures. […]

Another assay deals with AND TCR. The description is as above. The note with it: AND T cells, 37 °C, compared with same-day control. The class given is binding, mouse.
Description: as §1, §2, §3

Assay [1] addresses MCC agonist pMHC: MHC class II I-E^k loaded with MCC(C) peptide labelled with Atto647N (not stated | moth) (UniProt P04230). The assay is described as follows: two-color single molecule fluorescence tracking (TIRF); agonist pMHC (MCC-Atto647N) on a supported lipid bilayer; live T cells expressing ZAP70-EGFP; 1 frame/s, 500 ms integration; pair pMHC and TCR.
Assay [2] deals with MCC agonist pMHC: MHC class II I-E^k loaded with MCC(C) peptide labelled with Atto488 (not stated | moth) (UniProt P04230). Nature of the assay: single molecule fluorescence tracking (TIRF); pMHC (Atto488 on the peptide) tethered by His tags to a Ni-NTA supported lipid bilayer with ICAM1-TagBFP; live primary T cell blasts added; 500 ms exposure, 1-10 s time lapse; dwell time of the slow-moving pMHC corrected for photobleaching; 37°C, imaging buffer; also at 100 molecules/µm^2 and with Latrunculin A.

Assay [3] concerns the target phosphorylated ITAM domains on the cytoplasmic side of TCR engaged with pMHC (TCR complex, 10 ITAM domains) (mouse (endogenous in primary T cells)). The assay is described as follows: two-color single molecule fluorescence tracking (TIRF); ZAP70-EGFP intensity integrated over a 315 nm square centred on each pMHC:TCR complex in live T cells; change-point analysis; intensity calibrated with single ZAP70-EGFP molecules of the same cell; dwell times not corrected for photobleaching.

Turning to `C/C1=C/C(=O)O[C@@H]2C[C@@H](CC[C@H](C)/C=C\C=C\CC1)O[C@@](O)([C@@H]1CSC(=O)N1)C2` [Latrunculin A], in the assay with 5c.c7 TCR, the “effect of cytoskeleton disruption on agonist pMHC binding kinetics” value is reported as “no significant effect”. The “effect of cytoskeleton disruption on ⟨τoff⟩ of agonist pMHC” value with AND TCR was “moderately increases”.

What is called stoichiometry N is a count of units in the complex or per binding partner. In assay [1], AND TCR came in with a stoichiometry N of 1. This molecule also showed a mean dwell time 〈τoff〉 in assay [2] of 53.8 s.

In assay [3], “enhanced green fluorescent protein fused to CD3 zeta-chain-associated protein of 70 kDa (Zap70-EGFP) (from UniProt P43404 1-618) (enzyme)” gave a ZAP70 molecules (EGFP-tagged and endogenous) per feature (ZAP70 molecules per feature) of 6; a molecular binding dwell time of 12 to 107 s; a stoichiometry N (ZAP70-EGFP per feature) of 2.9.
